Test results: patent US20260168983A1, “YaxAB NANOPORE, NANOPORE SYSTEM COMPRISING SAME AND APPLICATIONS THEREOF” (KOREA RESEARCH INSTITUTE OF BIOSCIENCE AND BIOTECHNOLOGY, priority 2022, published 2026)

Target: Bcl-xL protein, Q07817
Assay: YaxAB nanopore; Bcl-xL with a mix of four competing peptides at 1:15

Sequence of Bcl-xL protein, Q07817 (Q07817 1-209): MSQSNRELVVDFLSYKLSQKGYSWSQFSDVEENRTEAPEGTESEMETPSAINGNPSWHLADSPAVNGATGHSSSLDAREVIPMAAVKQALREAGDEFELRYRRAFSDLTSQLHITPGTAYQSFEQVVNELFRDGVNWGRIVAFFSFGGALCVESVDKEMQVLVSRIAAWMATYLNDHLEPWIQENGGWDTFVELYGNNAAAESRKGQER

| Binder | signal frequency of the Bcl-xL-peptide complex [%] |
| --- | --- |
| GQVGRQLAIIGDDANR (modifications not checked) [Bak_BH3_I85A, Q16611 72-87] | 7 |
| GQVGRQAAIIGDDINR (modifications not checked) [Bak_BH3_L78A, Q16611 72-87] | 3 |
